The values below come from CN104892754A (INST OF MILITARY VETERINARY ACADEMY OF MILITARY MEDICAL …, dated 2015).

For the test, the target named is T1, 重组蛋白BontB(B型肉毒毒素轻链) (肉毒梭菌 (Clostridium botulinum), UniProt P10844 1-441).
T1 sequence: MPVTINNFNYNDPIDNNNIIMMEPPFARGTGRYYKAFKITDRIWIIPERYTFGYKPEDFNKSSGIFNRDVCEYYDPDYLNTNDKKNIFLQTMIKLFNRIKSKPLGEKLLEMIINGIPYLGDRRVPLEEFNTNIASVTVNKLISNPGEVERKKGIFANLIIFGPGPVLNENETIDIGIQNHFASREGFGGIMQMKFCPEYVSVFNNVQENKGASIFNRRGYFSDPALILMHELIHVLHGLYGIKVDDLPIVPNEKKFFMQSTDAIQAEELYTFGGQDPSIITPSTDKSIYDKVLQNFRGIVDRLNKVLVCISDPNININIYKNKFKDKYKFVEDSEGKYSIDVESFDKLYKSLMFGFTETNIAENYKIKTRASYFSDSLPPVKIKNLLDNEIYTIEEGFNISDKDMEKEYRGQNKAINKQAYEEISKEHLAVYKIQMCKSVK

B1: 抗B型肉毒毒素酶活性的人源单链抗体2F-scFv (scFv)
scFv: EVQLLESGGGLVQPGGSLRLSCAASGFTFSSYAMSWVRQAPGKGLEWVSSIASTGSNTAYADSVKGRFTISRNNSKNTLYLQMNSLRAEDTAVYYCAKGTGTFDYWGQGTLVTVSSGGGGSGGGGSGGGGSTDIQMTQSPSSLSASVGDRVTITCRASQSISSYLNWYQQKPGKAPKLLIYTASYLQSGVPSRFSGSGSGTDFTLTISSLQPEDFATYYCQQATTSPYTFGQGTKVEIKRAAAHHHHHHGAEQKLISEEDLNGAA
In the case of B1, the Ka turned out to be 1.15e+06 M⁻¹.

B2: 4C-scFv (scFv)
scFv: EVQLLESGGGLVQPGGSLRLSCAASGFTFSSYAMSWVRQAPGKGLEWVSGISPMGTRTSYADSVKGRFTISRDNSKNTLYLQMNSLRAEDTAVYYCAKNANGFDYWGQGTLVTVSSGGGGSGGGGSGGGGSTDIQMTQSPSSLSASVGDRVTITCRASQSISSYLNWYQQKPGKAPKLLIYRASVLQSGVPSRFSGSGSGETDFTLTISSLQPEDFATYYCQQRSRPPITFGQGTKVEIKRAAAHHHHHHGAAEQKLISEEDLNGAA
Regarding B2, the Ka came to 438000 M⁻¹.

B3: 3A-scFv (scFv)
scFv: EVQLLESGGGLVQPGGSLRLSCAASGFTFSSYAMSWVRQAPGKGLEWVSNISSNGNATAYADSVKGRFTISRNNSKNTLYLQMNSLRAEDTAVYYCAKYTYAFDYWGQGTLVTVSSGGGGSGGGGSGGGGSTDIQMTQSPSSLSASVGDRVTITCRASQSISSYLNWYQQKPGKAPKLLIYYASNLQSGVPSRFSGSGSGTDFTLTISSLQPEDFATYYCQQDSYTPSTFGQGTKVEIKRAAAHHHHHHGAAEQKLISEEDLNGAA
As to B3, the Ka is 535000 M⁻¹.
